Reference: the RNAGym collection of RNA variant scans (doi:10.1073/pnas.2313332121)

B1: TPR t1 (parent)
chain: GACCAAUCUGCCCUCAGAGCUCGAGAACAUCUUCGGAUGCAGAGGAGGCAGGCUUCGGUGGCGCGAUAGCGCCAACGUCCUCAACCUCCAAUGCAUCCCACCACAUGAUGAUGCCUGAAGAGCCUUGGUUUUUUG

Variants of: B1
Assay: polymerase ribozyme fitness, log enrichment relative to wild type (log ratio); higher = more active; in vitro selection for triplet polymerase activity
Summary of the method: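 Streptavidin-bead capture of gel-excised extended constructs, followed by RT-PCR, closed a single triplicate in vitro selection round. That round began by annealing PCR-built, transcribed mutant libraries of each subunit of a heterodimeric triplet polymerase ribozyme with a biotinylated primer, the partner subunit and triplets, then incubating them frozen at −7 °C. After Illumina sequencing of inputs and outputs, genotypes needed ≥10 input reads and ≥1 read per output. Fitness is the base-2 logarithm of genotype enrichment over wild-type enrichment, using inverse-variance-weighted replicate averages.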

Row | Variant | polymerase ribozyme fitness (log ratio)
1 | GACCAAUCUGCCCUCAGAGCUCGAGAACAUCUUCGGAUGCAGAGGAGGCAGGCUUCGGUGGCGCGAUAGCGCCAACGUUCUCAACCUCCAAUACAUCCCACAACAUGAUGAUGCCUGAAGAGCCUUGGUUUUUUG [C79U G93A C102A] | -2.33
2 | GACCAAUCUGCCCUCAGAGCUCGAGAACAUCUUCGGAUGCAGAGGAGGCAGGCUUCGGUGGCGCGAUAGCGCCAACGUUCUCAACCUCCAAUGUAUCUCACCACAUGAUGAUGCCUGAAGAGCCUUGGUUUUUUG [C79U C94U C98U] | -1.64
3 | GACCAAUCUGCCCUCAGAGCUCGAGAACAUCUUCGGAUGCAGAGGAGGCAGGCUUCGGUGGCGCGAUAGCGCCAACGUGCUCAACCGCCAACGCAUCCCACCACAUGAUGAUGCCUGAAUAGCCUUGGUUUUUUG [C79G U87G U92C G120U] | -4.54
4 | GACCAAUCUGCCCUCAGAGCUCGAGAACAUCUUCGGAUGCAGAGGAGGCAGGCUUCGGUGGCGCGAUAGCGCCAACGUGCUCAACCUCCAAUGCAUCCCAACACAUGAUGAUGCCUGAAGAGCCUUGGUUUUUUU [C79G C101A G135U] | -4.68
5 | GACCAAUCUGCCCUCAGAGCUCGAGAACAUCUUCGGAUGCAGAGGAGGCAGGCUUCGGUGGCGCGAUAGCGCCAACGUCAUCAACCUCCAAUGCAUCCCACCACAUGAGGAUGCCUGAAGAGCCUUGGUUUUUUG [C80A U109G] | -5.76
6 | GACCAAUCUGCCCUCAGAGCUCGAGAACAUCUUCGGAUGCAGAGGAGGCAGGCUUCGGUGGCGCGAUAGCGCCAACGUCAUCAACCUCCAAUGCAUCCCACCACAUGAAGAUGCCUGAAGAGCCUUGGUUUUUUG [C80A U109A] | -6.3
7 | GACCAAUCUGCCCUCAGAGCUCGAGAACAUCUUCGGAUGCAGAGGAGGCAGGCUUCGGUGGCGCGAUAGCGCCAACGUCAUCAACCUCCAAUGCAUCCCACCACAUGAUGAUGCCUGAAGAGCCUUGGAUUUUUG [C80A U129A] | -3.77
8 | GACCAAUCUGCCCUCAGAGCUCGAGAACAUCUUCGGAUGCAGAGGAGGCAGGCUUCGGUGGCGCGAUAGCGCCAACGUCUUCAACCUCCAAUGCAUCUCACCACAUGAUGAUGCCUGAAGAGCCUUGGUUUUUUG [C80U C98U] | -1.69
9 | GACCAAUCUGCCCUCAGAGCUCGAGAACAUCUUCGGAUGCAGAGGAGGCAGGCUUCGGUGGCGCGAUAGCGCCAACGUCAUCAACCUCCAAUGCACCCCACCACAUGAUGAUGCAUGAAGAGCCUUGGUUUUUUG [C80A U96C C115A] | -3.34
10 | GACCAAUCUGCCCUCAGAGCUCGAGAACAUCUUCGGAUGCAGAGGAGGCAGGCUUCGGUGGCGCGAUAGCGCCAACGUCAUCAGCCUCCAAUGCAUCUCACCACAUGAUGAUGCCUGAAGAGCCUUGGUUUUUUG [C80A A84G C98U] | -6.69
11 | GACCAAUCUGCCCUCAGAGCUCGAGAACAUCUUCGGAUGCAGAGGAGGCAGGCUUCGGUGGCGCGAUAGCGCCAACGUCAUCAAUACCCAAUGCAUCCCACCACAUGAUGAUGCCUGAAGAGCCUUGGUUUUUUG [C80A C85U C86A U87C] | -7.24
12 | GACCAAUCUGCCCUCAGAGCUCGAGAACAUCUUCGGAUGCAGAGGAGGCAGGCUUCGGUGGCGCGAUAGCGCCAACGUCUUCAACCUCCAAUGCAUCCCAUCACAUGAUGAUGCCUGGAGUGCCUUGGUUAUUUG [C80U C101U A118G A121U U131A] | 0.732
13 | GACCAAUCUGCCCUCAGAGCUCGAGAACAUCUUCGGAUGCAGAGGAGGCAGGCUUCGGUGGCGCGAUAGCGCCAACGUUCUCAACCUCCAAUGCAUCCCACCACAUGAUGAUGCCUGAAGAGCGUUGGUUUUUUG [C79U C124G] | 1.81
14 | GACCAAUCUGCCCUCAGAGCUCGAGAACAUCUUCGGAUGCAGAGGAGGCAGGCUUCGGUGGCGCGAUAGCGCCAACGUUCUCAACCUCCAAUGCAUCCCACCACAUGAUGAUGCCUGAAGAGCAUUGGUUUUUUG [C79U C124A] | 1.12
15 | GACCAAUCUGCCCUCAGAGCUCGAGAACAUCUUCGGAUGCAGAGGAGGCAGGCUUCGGUGGCGCGAUAGCGCCAACGUCUUCAACCUCCAAUGCAUUCCACCACAUGAUGAUGCCUGAAGAGCCUUGGUUUUUUG [C80U C97U] | -0.856
16 | GACCAAUCUGCCCUCAGAGCUCGAGAACAUCUUCGGAUGCAGAGGAGGCAGGCUUCGGUGGCGCGAUAGCGCCAACGUCUUCAACCUCCAAUGCAUCCCACCACAUGAUGAUGCCUGAAGAGCCUUGGUUUUGUG [C80U U133G] | -0.514
17 | GACCAAUCUGCCCUCAGAGCUCGAGAACAUCUUCGGAUGCAGAGGAGGCAGGCUUCGGUGGCGCGAUAGCGCCAACGUGCUCAACCUCCAAUGCAUCCCACCACAUGAUGAUGCCUGAAGAGCCUAGUUUUUUUG [C79G U126A G128U] | -4.31
18 | GACCAAUCUGCCCUCAGAGCUCGAGAACAUCUUCGGAUGCAGAGGAGGCAGGCUUCGGUGGCGCGAUAGCGCCAACGUCGUCAACCUCCAAUGCAUCCCACCACAGGAUAAUGCCUGAAGAGCGUUGGUUUUUUG [C80G U106G G110A C124G] | -6.57
19 | GACCAAUCUGCCCUCAGAGCUCGAGAACAUCUUCGGAUGCAGAGGAGGCAGGCUUCGGUGGCGCGAUAGCGCCAACGUGCUCAACCUCCAAUGCAUCCCACCACAUGAUGAUGCCUGAAAAGCCUUGGUCUUUUG [C79G G120A U130C] | -1.26
20 | GACCAAUCUGCCCUCAGAGCUCGAGAACAUCUUCGGAUGCAGAGGAGGCAGGCUUCGGUGGCGCGAUAGCGCCAACGUGCUCAACCUCCAAUGCAUCCCACCACAUGAUGAUGCCUGAAGAGUCUUGGUUUUUUG [C79G C123U] | 0.127
21 | GACCAAUCUGCCCUCAGAGCUCGAGAACAUCUUCGGAUGCAGAGGAGGCAGGCUUCGGUGGCGCGAUAGCGCCAACGUUCUCAACCUCUAAUGCAUCCCACUACAUGAUGAUGCCUGAACAGCCUUGGUUUUUUG [C79U C89U C102U G120C] | -2.83

Row | Variant | polymerase ribozyme fitness (log ratio)
22 | GACCAAUCUGCCCUCAGAGCUCGAGAACAUCUUCGGAUGCAGAGGAGGCAGGCUUCGGUGGCGCGAUAGCGCCAACGUUCUCAACCUCCAAUGGAUCCCACCACAUGAUGAUGCCUGAAGAGCCUUGGUUUUUUG [C79U C94G] | -0.831
23 | GACCAAUCUGCCCUCAGAGCUCGAGAACAUCUUCGGAUGCAGAGGAGGCAGGCUUCGGUGGCGCGAUAGCGCCAACGUUCUCAACCUCCAAUGAAUCCCACCACAUGAUGAUGCCUGAAGAGCCUUGGUUUUUUG [C79U C94A] | -4.5
24 | GACCAAUCUGCCCUCAGAGCUCGAGAACAUCUUCGGAUGCAGAGGAGGCAGGCUUCGGUGGCGCGAUAGCGCCAACGUCGUCAACCUCCAAUGCAUCCCACCACAUGAUGAUGCCUGAAGAGCCUUGGUUUCUUG [C80G U132C] | -4.66
25 | GACCAAUCUGCCCUCAGAGCUCGAGAACAUCUUCGGAUGCAGAGGAGGCAGGCUUCGGUGGCGCGAUAGCGCCAACGUCAUCAACCUCCAAUGCAUCCCACCACAUGAUGAUGGCUUAAGAGCCUUGGUUUUUUG [C80A C114G G117U] | -6.34
26 | GACCAAUCUGCCCUCAGAGCUCGAGAACAUCUUCGGAUGCAGAGGAGGCAGGCUUCGGUGGCGCGAUAGCGCCAACGUCAUCAUCCUCCAAUGCAUCCCACCACAUGAUGAUGCCUGAAGAGCCUUGGUUUUUUG [C80A A84U] | -3.74
27 | GACCAAUCUGCCCUCAGAGCUCGAGAACAUCUUCGGAUGCAGAGGAGGCAGGCUUCGGUGGCGCGAUAGCGCCAACGUCAUCAACCUCCAAUGCAUCCCACCACAUGAUGAUGCCGGAACAGACUUGGUUUUUUG [C80A U116G G120C C123A] | -3.59
28 | GACCAAUCUGCCCUCAGAGCUCGAGAACAUCUUCGGAUGCAGAGGAGGCAGGCUUCGGUGGCGCGAUAGCGCCAACGUGCACAACCUCCAAUGCAUCUCACGACAUCAUGAUGCCUGAAGAGCCUUGGUUUUUUG [C79G U81A C98U C102G G107C] | -7.84
29 | GACCAAUCUGCCCUCAGAGCUCGAGAACAUCUUCGGAUGCAGAGGAGGCAGGCUUCGGUGGCGCGAUAGCGCCAACGUUCACAACCUCCAAUGCAUCCCACCACAUGAUGAUGCCUGAAGAGCCUUGGUUUUUUG [C79U U81A] | -1.75
30 | GACCAAUCUGCCCUCAGAGCUCGAGAACAUCUUCGGAUGCAGAGGAGGCAGGCUUCGGUGGCGCGAUAGCGCCAACGUCUUCAACCUCCAAUGCAUCCCACCACAAGAUGAUGCCUGAAGAGCCUUGGUUUUUUG [C80U U106A] | -0.267
31 | GACCAAUCUGCCCUCAGAGCUCGAGAACAUCUUCGGAUGCAGAGGAGGCAGGCUUCGGUGGCGCGAUAGCGCCAACGUCCACAACCUCCUAUGCAUCCCACCACAUGAUGAUGCCUGAAGAGCCUUGGUUUUUUG [U81A A90U] | -2.41
32 | GACCAAUCUGCCCUCAGAGCUCGAGAACAUCUUCGGAUGCAGAGGAGGCAGGCUUCGGUGGCGCGAUAGCGCCAACGUUCUCAACCUCCAAUGCAUCCCACCACAUGAUGAUUCCAGAAGAGCCUUGGUUUUUUG [C79U G113U U116A] | -5.49
33 | GACCAAUCUGCCCUCAGAGCUCGAGAACAUCUUCGGAUGCAGAGGAGGCAGGCUUCGGUGGCGCGAUAGCGCCAACGUUCUCAACCUCCAAUGCGUCCCACCACUUGAUGAUGCCUGAAGAGCCUUGGUUUUUUG [C79U A95G A105U] | -2.87
34 | GACCAAUCUGCCCUCAGAGCUCGAGAACAUCUUCGGAUGCAGAGGAGGCAGGCUUCGGUGGCGCGAUAGCGCCAACGUGCUCAACCUCCAAUGCAUCCCACCACAUGAUGAUGACUGAAGAGCCUUGGUUUUUUG [C79G C114A] | -0.594
35 | GACCAAUCUGCCCUCAGAGCUCGAGAACAUCUUCGGAUGCAGAGGAGGCAGGCUUCGGUGGCGCGAUAGCGCCAACGUGCUCAACCUCCAAUGCAACCCACCACAUGAUGAUGCCUGAAGAGCCUUGGUUUUUUG [C79G U96A] | -2.96
36 | GACCAAUCUGCCCUCAGAGCUCGAGAACAUCUUCGGAUGCAGAGGAGGCAGGCUUCGGUGGCGCGAUAGCGCCAACGUUCUCAACCUCCAAUGCAUCCCACCACAUGAUGAUGCCUGAAGAUCCUUGGUUUUUUG [C79U G122U] | 0.0245
37 | GACCAAUCUGCCCUCAGAGCUCGAGAACAUCUUCGGAUGCAGAGGAGGCAGGCUUCGGUGGCGCGAUAGCGCCAACGUUCUAAACCUCCAAUGCAUCCCACCACAUGAUGAUGCCUGAAGAGCCUUGGUUUUUUG [C79U C82A] | -1.23
38 | GACCAAUCUGCCCUCAGAGCUCGAGAACAUCUUCGGAUGCAGAGGAGGCAGGCUUCGGUGGCGCGAUAGCGCCAACGUUCUCAACCUCCAAUGCAUCCCACCACAAGAUGAUGCCCGAAGAGCCUCGGUUUUUUG [C79U U106A U116C U126C] | -1.17
39 | GACCAAUCUGCCCUCAGAGCUCGAGAACAUCUUCGGAUGCAGAGGAGGCAGGCUUCGGUGGCGCGAUAGCGCCAACGUCUUCAUCCUCCAAUGCAUCCCACCACAUGAUGAUGCCUGAAGAGCCUUGGUUUUUUG [C80U A84U] | -1.02
40 | GACCAAUCUGCCCUCAGAGCUCGAGAACAUCUUCGGAUGCAGAGGAGGCAGGCUUCGGUGGCGCGAUAGCGCCAACGUCUUCAAACUCCAAUGCAUCCCACCACAUGAUGAUGCCUGAAGAGCCUUGGUUUUUUG [C80U C85A] | -2.89
41 | GACCAAUCUGCCCUCAGAGCUCGAGAACAUCUUCGGAUGCAGAGGAGGCAGGCUUCGGUGGCGCGAUAGCGCCAACGUCGUCAACCACCAAUGCAUCCCACCACAUGAUGAUGCCGGAUGAGCGUUGGUUUUUUG [C80G U87A U116G A119U C124G] | -6.5
42 | GACCAAUCUGCCCUCAGAGCUCGAGAACAUCUUCGGAUGCAGAGGAGGCAGGCUUCGGUGGCGCGAUAGCGCCAACGUCUUCAACCUCCAAUGCAUCCCACAACAAGAUGAAGCCUGAAGAGCCUUGGUUUUUUG [C80U C102A U106A U112A] | -4.1
